Measurements as given in the supplement of paper PMC9732359.
± gives the uncertainty stated by the source.

Test: protein stability index of a GFP-peptide fusion (yeast GPS) (PSI 1-4); higher = more stable; sorted into four equal gates, so the index is relative within each strain
In short: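 The protein stability index combines read frequencies across sorting gates, each weighted by its gate number and then summed. To obtain those frequencies, a pooled yeast library of GFP fusions to tiled 17-residue yeast protein peptides, on a plasmid also expressing Cherry, was grown to mid-log phase in leucine-free medium. The cells were sorted into four equal gates by GFP/Cherry ratio before plasmid amplification by PCR and Illumina sequencing.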

Row | Sequence | protein stability index (doa10∆) | protein stability index (pdr5∆) | protein stability index (san1∆) | protein stability index (ubr1∆)
1 | MRNFSKQNQDSKHNERN [YDL088C/ASM4] | 3.01 ± 0.11 | 3.32 ± 0.14 | 2.46 ± 0.09 | 3.34 ± 0.093
2 | GINQILGNEKNQASTSK [CDC53] | 3.08 ± 0.15 | 3.25 ± 0.14 | 3.11 ± 0.092 | 3.2 ± 0.073
3 | PVTIWLFEQIGIRIKGK [SME1] | 2.42 ± 0.057 | 2.28 ± 0.053 | 2.35 ± 0.066 | 2.45 ± 0.039
4 | ALIENKKAKLVLIANDV [RPL8A] | 2.76 ± 0.1 | 2.51 ± 0.093 | 2.56 ± 0.12 | 2.46 ± 0.12
5 | CNSLHIPQDFENEVSDI [ESC2] | 2.95 ± 0.06 | 3.03 ± 0.056 | 2.93 ± 0.088 | 2.92 ± 0.045
6 | YHSKRDASTPLRSTENG [RPB2] | 3.12 ± 0.1 | 3.32 ± 0.071 | 3.12 ± 0.055 | 3.33 ± 0.05
7 | PTVNRVPNYEVSEKAFL [RPN7] | 1.14 ± 0.12 | 1.68 ± 0.1 | 1.79 ± 0.22 | 1.18 ± 0.17
8 | EISSQIEILVKDNECSS [RRI2] | 1.5 ± 0.11 | 1.25 ± 0.15 |  | 1.16 ± 0.069
9 | KKLFQKKENLTRDETVS [YML103C/NUP188] | 2.65 ± 0.23 | 3.29 ± 0.12 | 3.01 ± 0.08 | 3.3 ± 0.088
10 | KDQDSQIELSCNERVPL [SRP72] | 3.08 ± 0.08 | 3.12 ± 0.097 | 2.83 ± 0.056 | 3.01 ± 0.059
11 | PKEEEPILAPSVKDYRP [RPS3] | 2.8 ± 0.059 | 2.86 ± 0.079 | 3.04 ± 0.052 | 2.65 ± 0.054
12 | CRGELKADIGKPGRMPF [CDC53] | 2.21 ± 0.071 | 2.65 ± 0.069 | 2.91 ± 0.085 | 2.97 ± 0.067
13 | SGKITDFIKFDAGKLVY [RPS4A] | 3.17 ± 0.066 | 2.92 ± 0.061 | 2.8 ± 0.06 | 3 ± 0.064
14 | KPLTENCKKKKKRKKKN [RMP1] | 2.97 ± 0.19 | 1.89 ± 0.28 | 1.5 ± 0.14 | 3.38 ± 0.19
15 | FHSAVENLVQGNGNVSE [YCG1] | 3.21 ± 0.092 | 2.97 ± 0.067 | 3.23 ± 0.069 | 3.02 ± 0.12
16 | QVKVKGQLGEMAKCLDN [YCS4] | 3.25 ± 0.11 | 3.17 ± 0.13 | 3.19 ± 0.066 | 2.73 ± 0.076
17 | LEHPYGKEVEVLMETKN [SNU114] | 2.26 ± 0.083 | 2.98 ± 0.068 | 2 ± 0.1 | 2.21 ± 0.057
18 | KTSSGSYNYVENGIEVE [ITC1] | 3.31 ± 0.18 | 3.2 ± 0.2 | 2.95 ± 0.12 | 3.31 ± 0.17
19 | TTGGDYILSLVSIKDST [YMR129W/POM152] | 1.99 ± 0.042 | 2.04 ± 0.034 | 1.89 ± 0.052 | 1.68 ± 0.028
20 | YTMSNHGMSVDPRHIQL [RPO31] | 2.85 ± 0.066 | 2.91 ± 0.083 | 2.94 ± 0.053 | 3.01 ± 0.044
21 | NLKFLKNKDSLVSNPHE [SRB4] | 2.68 ± 0.06 | 2.51 ± 0.076 | 2.49 ± 0.05 | 2.84 ± 0.049
22 | LEKKFQDRHVIFLAERR [RPS7A] | 2.53 ± 0.23 | 2.9 ± 0.12 | 2.86 ± 0.27 | 2.71 ± 0.11

Row | Sequence | protein stability index (doa10∆) | protein stability index (pdr5∆) | protein stability index (san1∆) | protein stability index (ubr1∆)
23 | DARSSRNFSLAIIDKNT [PRE4] | 3.02 ± 0.075 | 2.78 ± 0.083 | 2.98 ± 0.05 | 2.89 ± 0.056
24 | NQLDGFDDRGDVKVIMA [RPT2] | 3.47 ± 0.17 | 3.44 ± 0.27 | 3.09 ± 0.1 | 3.52 ± 0.17
25 | NHFKDTYGFSILDIVIN [FAS1] | 3.41 ± 0.12 | 3.28 ± 0.11 | 3.33 ± 0.091 | 3.29 ± 0.088
26 | AVGAHSDLLKVLKSKKL [RPL4A] | 3.13 ± 0.14 | 3.14 ± 0.13 | 2.61 ± 0.16 | 2.82 ± 0.062
27 | KPTREPTPSVKTEPVGT [RPC53] | 3.15 ± 0.22 | 3.06 ± 0.26 | 2.95 ± 0.19 | 3.02 ± 0.21
28 | CNAQPITRSVMRFNIEI [BRR2] | 2.71 ± 0.082 | 2.82 ± 0.066 | 2.77 ± 0.058 | 3.02 ± 0.064
29 | YDLVILKSGLPLSGLLF [YMR129W/POM152] | 3.61 ± 0.17 | 2.53 ± 0.13 | 3.51 ± 0.049 | 2.11 ± 0.18
30 | VSKADILLSHHRASPAD [POP5] | 2.34 ± 0.15 | 3.26 ± 0.16 | 3.18 ± 0.054 | 2.91 ± 0.1
31 | NDNDITVKENESDSKLQ [UBP6] | 3.48 ± 0.12 | 3.24 ± 0.096 | 3.15 ± 0.071 | 3.35 ± 0.081
32 | QPQALQKSGRPVKSIRA [RPO21] | 2.62 ± 0.065 | 2.29 ± 0.069 | 2.36 ± 0.083 | 2.17 ± 0.037
33 | ILATNSLRILAKLSERS [YJL039C/NUP192] | 2.39 ± 0.062 | 2.67 ± 0.062 | 2.49 ± 0.085 | 2.67 ± 0.053
34 | SSDGAYTEQFQHYKNNS [SSN2] | 2.99 ± 0.068 | 3.03 ± 0.056 | 3.02 ± 0.066 | 3.06 ± 0.05
35 | ESIASSNTYKEERSNNL [MCD1] | 3.03 ± 0.13 | 3.37 ± 0.14 | 3.25 ± 0.06 | 3.39 ± 0.075
36 | KRLADGLSVTQKVFVRS [DIS3] | 1.85 ± 0.077 | 2.38 ± 0.076 | 1.93 ± 0.12 | 1.93 ± 0.06
37 | GLPVGAIMNCADNSGAR [RPL23A] | 1.91 ± 0.053 | 2.28 ± 0.06 | 1.63 ± 0.068 | 1.83 ± 0.055
38 | AELLVLKILKQVMEEKL [PUP2] | 2.73 ± 0.16 | 2.75 ± 0.087 | 2.69 ± 0.24 | 2.56 ± 0.24
39 | IRLAKTLKKNNVAVDII [RPN10] | 2.73 ± 0.085 | 2.85 ± 0.095 | 2.92 ± 0.12 | 2.56 ± 0.075
40 | MVVQNSPVSSVHTANFS [MED2] | 2.12 ± 0.1 | 2.67 ± 0.075 | 2.01 ± 0.099 | 2.75 ± 0.054
41 | NLTEFVQMDKIRKIVRK [AAR2] | 2.77 ± 0.14 | 2.43 ± 0.1 | 1.9 ± 0.13 | 2.34 ± 0.13
42 | NFGFGIDEHIDLGIKYD [RPL11A] | 2.59 ± 0.1 | 2.51 ± 0.16 | 2.39 ± 0.11 | 2.39 ± 0.11
43 | KPAFSFGAKPDENKASA [YJL041W/NSP1] | 3.16 ± 0.093 | 3.3 ± 0.074 | 2.76 ± 0.06 | 3.24 ± 0.063
44 | KIQQQQPGYADLEHKED [QCR6] | 2.51 ± 0.062 | 2.71 ± 0.071 | 2.69 ± 0.069 | 2.69 ± 0.044
